# Columns and labels:
# [1] = target: myc-tagged full-length S of SARS-CoV-2 variant B.1.351 (Beta) expressed on Expi293F cells (SARS-CoV-2 B.1.351 (Beta))
# [2] = target: myc-tagged full-length S of SARS-CoV-2 variant P.1 (Gamma) expressed on Expi293F cells (SARS-CoV-2 P.1 (Gamma))
# [3] = target: myc-tagged full-length S of SARS-CoV-2 variant B.1.1.7 (Alpha) expressed on Expi293F cells (SARS-CoV-2 B.1.1.7 (Alpha))
Substance,EC50 (read off the curve) [1],EC50 (read off the curve) [2],EC50 (read off the curve) [3]
REGN10987 (imdevimab) (antibody),300 pM,200 pM,
sACE22.v2.4 fused to human IgG1 Fc (Fc fusion),,800 pM,700 pM

# — patent US20240398911A1
